# Reference: patent US7183387 (Genentech, dated 2007)
# T1: human FcγRIIB α subunit extracellular domain-His6-GST fusion (human, UniProt P31994 43-217)
# T1 construct: extracellular domain; also called CD32; not shown: glutathione S transferase (GST)
# T1 sequence: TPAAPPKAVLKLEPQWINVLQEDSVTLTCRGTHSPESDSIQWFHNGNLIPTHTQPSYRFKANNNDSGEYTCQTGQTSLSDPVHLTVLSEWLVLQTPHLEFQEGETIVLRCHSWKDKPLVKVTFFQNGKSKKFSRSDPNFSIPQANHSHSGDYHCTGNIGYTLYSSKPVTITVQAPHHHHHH
# T2: human FcγRIIA-Arg131 α subunit extracellular domain-His6-GST fusion (human, UniProt P12318 34-217)
# T2 construct: extracellular domain; also called FcγRIIA-R131; not shown: glutathione S transferase (GST)
# T2 sequence: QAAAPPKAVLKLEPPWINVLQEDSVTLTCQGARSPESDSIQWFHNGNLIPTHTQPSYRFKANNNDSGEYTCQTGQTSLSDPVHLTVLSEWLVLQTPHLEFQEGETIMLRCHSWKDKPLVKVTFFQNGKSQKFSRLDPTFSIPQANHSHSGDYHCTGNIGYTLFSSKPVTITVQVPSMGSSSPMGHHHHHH
# T3: human FcγRIIA-R131 α subunit extracellular domain-His6-GST fusion protein (human, UniProt P12318 34-217)
# T3 construct: ECD-6His-GST fusion made in 293 cells, coated on the plate; also called FcγRIIA-Arg131; not shown: glutathione S-transferase (GST)
# T3 sequence: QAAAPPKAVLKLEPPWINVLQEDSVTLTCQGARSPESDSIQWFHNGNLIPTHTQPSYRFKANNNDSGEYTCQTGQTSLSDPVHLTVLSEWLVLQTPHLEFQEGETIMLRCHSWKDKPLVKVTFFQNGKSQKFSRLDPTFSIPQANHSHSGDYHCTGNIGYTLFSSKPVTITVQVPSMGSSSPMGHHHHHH
# T4: human FcγRIIA-H131 α subunit extracellular domain-His6-GST fusion protein (human, UniProt P12318 34-217)
# T4 construct: also called FcγRIIA-His131; not shown: glutathione S-transferase (GST)
# T4 sequence: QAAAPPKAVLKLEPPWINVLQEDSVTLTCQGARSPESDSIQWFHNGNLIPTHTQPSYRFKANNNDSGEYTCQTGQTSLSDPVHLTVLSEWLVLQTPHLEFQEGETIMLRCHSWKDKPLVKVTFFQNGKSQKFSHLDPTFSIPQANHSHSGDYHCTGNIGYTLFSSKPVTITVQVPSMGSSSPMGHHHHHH
# Assays:
# [1] = molecular target: T1, human FcγRIIB α subunit extracellular …; assay: hexamer ELISA
# [2] = molecular target: T2, human FcγRIIA-Arg131 α subunit …; assay: hexamer ELISA
# [3] = molecular target: T5, human FcγRIIIA-Val158 α subunit extracellular domain-His6-GST fusion protein (human, UniProt P08637 17-208); assay: ELISA format, hexameric complex on FcγRIIIA-Val158
# T5 construct: ELISA-format target; also called FcγRIIIA-V158; not shown: glutathione S-transferase (GST)
# T5 sequence (P08637 other isoform, or with tags, fused parts or gaps, form in doubt): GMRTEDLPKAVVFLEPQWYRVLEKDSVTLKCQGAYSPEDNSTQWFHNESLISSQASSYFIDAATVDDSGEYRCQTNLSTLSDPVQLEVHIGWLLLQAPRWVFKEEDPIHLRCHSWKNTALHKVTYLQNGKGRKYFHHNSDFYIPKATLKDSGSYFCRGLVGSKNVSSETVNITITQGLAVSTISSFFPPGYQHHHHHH
# [4] = molecular target: T6, human FcγRIIIA-Phe158 α subunit extracellular domain-His6-GST fusion protein (human, UniProt P08637 17-208); assay: ELISA, IgG:IgE hexamer on coated FcγRIIIA-Phe158-GST; value carried over from Table 6
# T6 construct: ELISA-format target; also called FcγRIIIA-F158; not shown: glutathione S-transferase (GST)
# T6 sequence (P08637 other isoform, or with tags, fused parts or gaps, form in doubt): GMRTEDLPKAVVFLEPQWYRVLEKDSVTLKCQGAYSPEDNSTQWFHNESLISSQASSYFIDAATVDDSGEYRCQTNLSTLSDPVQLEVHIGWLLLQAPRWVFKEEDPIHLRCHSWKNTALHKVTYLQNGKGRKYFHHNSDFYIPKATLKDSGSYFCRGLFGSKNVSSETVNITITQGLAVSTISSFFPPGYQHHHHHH
# [5] = molecular target: T3, human FcγRIIA-R131 α subunit …; assay: ELISA, IgG:IgE hexamer on coated FcγRIIA-R131-GST; separate assays run together with the H131 assays
# [6] = molecular target: T3, human FcγRIIA-R131 α subunit …; assay: ELISA, IgG:IgE hexamer on coated FcγRIIA-R131-GST; value carried over from Table 6, 7 or 8
# [7] = molecular target: T7, human FcγRIIIA-Phe158 with human γ-chain on stably transfected CHO cells (human, UniProt P08637 17-254; P30273 19-86); assay: flow cytometry, monomeric IgG on CHO cells with FcγRIIIA-Phe158 α- and γ-chains
# T7 construct: whole, on cells; CHO cells stably transfected with the α- and γ-chains of the receptor; also called FcγRIIIA-Phe158 (cell-based assay)
# T7 sequence (P08637 17-254, chain 1 of 2): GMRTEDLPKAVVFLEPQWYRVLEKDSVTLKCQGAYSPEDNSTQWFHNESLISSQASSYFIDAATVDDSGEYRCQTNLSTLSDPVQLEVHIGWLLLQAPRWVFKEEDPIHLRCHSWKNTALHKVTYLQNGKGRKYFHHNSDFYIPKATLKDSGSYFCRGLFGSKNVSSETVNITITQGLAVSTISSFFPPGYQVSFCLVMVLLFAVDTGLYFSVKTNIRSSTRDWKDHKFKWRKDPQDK
# T7 sequence (P30273 19-86, chain 2 of 2): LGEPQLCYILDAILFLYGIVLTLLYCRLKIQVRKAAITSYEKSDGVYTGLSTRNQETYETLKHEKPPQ
# Method: CHO cell transfection was carried out using Superfect (Qiagen) according to the manufacturer's instructions. […] Receptor expression levels were determined by staining with anti-FcγRIII monoclonal antibody 3G8 (Medarex). Binding of IgG1 variants was performed by adding monomeric IgG in staining buffer to 5×10^5 cells and incubating in 96 well round-bottom tissue culture plates (Costar, Cambridge, Mass.) at 4° C. for 30 min. Cells were washed three times with staining buffer and IgG binding detected by addition of 1:200 PE-F(ab')_2 fragment of goat anti-human IgG and incubation for 30 min at 4° C. After washing, immunofluorescence staining was analyzed on a FACScan flow cytometer using Cellquest software (Becton Dickinson). Dead cells were excluded from analysis by addition of 1 μg/ml propidium iodide.
# For FcγRIIIA, the selected variants were assayed in the ELISA-format as well as on stable-transfected CHO cell lines expressing the γ-chains (FcγRIIIA-Phe158 or FcγRIIIA-Val158) with the associated human α-chain.
# [8] = molecular target: T4, human FcγRIIA-H131 α subunit …; assay: ELISA, IgG:IgE hexamer on coated FcγRIIA-H131-GST
# [9] = molecular target: T4, human FcγRIIA-H131 α subunit …; assay: ELISA; binding ratio on FcγRIIA-H131 divided by that on FcγRIIA-R131
# [10] = molecular target: T8, human FcγRIIIA-Val158 with human γ-chain on stably transfected CHO cells (human, UniProt P08637 17-254; P30273 19-86); assay: flow cytometry, monomeric IgG on CHO cells with FcγRIIIA-Val158 α- and γ-chains
# T8 construct: whole, on cells; CHO cells stably transfected with the α- and γ-chains of the receptor; also called FcγRIIIA-Val158 (cell-based assay); FcγRIIIA-V158
# T8 sequence (P08637 17-254 F176V, chain 1 of 2): as the sequence (P08637 17-254, chain 1 of 2) above, with F160V counted along it
# T8 sequence (P30273 19-86, chain 2 of 2): as the sequence (P30273 19-86, chain 2 of 2) above
# [11] = molecular target: T6, human FcγRIIIA-Phe158 α subunit …; assay: ELISA format, hexameric complex on FcγRIIIA-Phe158; separate assays run together with the Val158 assays
# [12] = molecular target: T9, human neonatal Fc receptor (FcRn), biotinylated (human, UniProt P55899 24-297; P61769 21-119, biotinylated (biotin-X-NHS)); assay: FcRn ELISA, pH 6.0;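 note: Streptavidin-captured FcRn plates, IgG variants titrated 2 h at pH 6.0, peroxidase anti-human IgG read at 450 nm, variant over standard concentration at the standard curve mid-point absorbance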
# T9 construct: captured on streptavidin plates
# [13] = molecular target: T10, human FcγRIA α subunit extracellular domain-His6-GST fusion (human, UniProt P12314 16-292); assay: FcγRI ELISA, E27 background
# T10 construct: extracellular domain; also called GST-FcγRIA; CD64; not shown: glutathione S transferase (GST)
# T10 sequence (P12314 other isoform, or with tags, fused parts or gaps): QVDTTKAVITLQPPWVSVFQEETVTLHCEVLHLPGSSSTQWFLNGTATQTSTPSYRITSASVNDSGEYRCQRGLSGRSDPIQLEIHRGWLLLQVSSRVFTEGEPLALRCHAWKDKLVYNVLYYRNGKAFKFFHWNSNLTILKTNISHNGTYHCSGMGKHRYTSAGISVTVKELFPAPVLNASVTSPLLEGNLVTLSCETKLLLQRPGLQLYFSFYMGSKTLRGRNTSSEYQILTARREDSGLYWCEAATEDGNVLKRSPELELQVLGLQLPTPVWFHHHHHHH
# [14] = molecular target: T11, human FcγRIIIA-Phe158 α subunit extracellular domain-His6-GST fusion (human, UniProt P08637 17-208); assay: hexamer ELISA
# T11 construct: extracellular domain; also called FcγRIIIA-F158; CD16; not shown: glutathione S transferase (GST)
# [15] = molecular target: T2, human FcγRIIA-Arg131 α subunit …; assay: hexamer ELISA; remark: listed apart in the source
# [16] = molecular target: T11, human FcγRIIIA-Phe158 α subunit …; assay: immune complex ELISA, E27 background
# [17] = molecular target: T2, human FcγRIIA-Arg131 α subunit …; assay: immune complex ELISA, E27 background
# [18] = molecular target: T10, human FcγRIA α subunit extracellular …; assay: FcγRI ELISA and THP-1 cells, averaged
ratio of binding of the variant to that of native IgG1 [3],ratio of binding of the variant to that of native IgG1 [4],ratio of binding of the variant to that of native IgG1 [7],ratio of binding of the variant to that of native IgG1 [10],ratio of binding of the variant to that of native IgG1 [11],further results,Binder
,,,,,reduction in binding against native IgG1 [1]: 40%; reduction in binding against native IgG1 [2]: 30%,"anti-IgE E27 IgG1 Gln419 changed to Ala (antibody, named only by its position) heavy: not shown light: DIQLTQSPSSLSASVGDRVTITCRASKPVDGEGDSYLNWYQQKPGKAPKLLIYAASYLESGVPSRFSGSGSGTDFTLTISSLQPEDFATYYCQQSHEDPYTFGQGTKVEIKRTVAAPSVFIFPPSDEQLKSGTASVVCLLNNFYPREAKVQWKVDNALQSGNSQESVTEQDSKDSTYSLSSTLTLSKADYEKHKVYACEVTHQGLSSPVTKSFNRGEC"
1.07 ratio (variant/native IgG1),1.34 ratio (variant/native IgG1),1.85 ratio (variant/native IgG1),1.18 ratio (variant/native IgG1),1.49 ratio (variant/native IgG1),ratio of binding of the variant to that of native IgG1 [5]: 0.26 ratio (variant/native IgG1); ratio of binding of the variant to that of native IgG1 [6]: 0.4 ratio (variant/native IgG1); ratio of binding of the variant to that of native IgG1 [8]: 0.24 ratio (variant/native IgG1); H131/R131 [9]: 0.93 ratio (H131 value/R131 value),"anti-IgE E27 IgG1 variant Ser298Ala (antibody, also called S317A) heavy: not shown light: DIQLTQSPSSLSASVGDRVTITCRASKPVDGEGDSYLNWYQQKPGKAPKLLIYAASYLESGVPSRFSGSGSGTDFTLTISSLQPEDFATYYCQQSHEDPYTFGQGTKVEIKRTVAAPSVFIFPPSDEQLKSGTASVVCLLNNFYPREAKVQWKVDNALQSGNSQESVTEQDSKDSTYSLSSTLTLSKADYEKHKVYACEVTHQGLSSPVTKSFNRGEC"
1.1 ratio (variant/native IgG1),1.39 ratio (variant/native IgG1),2.46 ratio (variant/native IgG1),1.26 ratio (variant/native IgG1),1.39 ratio (variant/native IgG1),,"anti-IgE E27 IgG1 variant Lys334Ala (antibody, also called K353A) heavy: not shown light: DIQLTQSPSSLSASVGDRVTITCRASKPVDGEGDSYLNWYQQKPGKAPKLLIYAASYLESGVPSRFSGSGSGTDFTLTISSLQPEDFATYYCQQSHEDPYTFGQGTKVEIKRTVAAPSVFIFPPSDEQLKSGTASVVCLLNNFYPREAKVQWKVDNALQSGNSQESVTEQDSKDSTYSLSSTLTLSKADYEKHKVYACEVTHQGLSSPVTKSFNRGEC"
0.97 ratio (variant/native IgG1),1.08 ratio (variant/native IgG1),0.94 ratio (variant/native IgG1),0.88 ratio (variant/native IgG1),1 ratio (variant/native IgG1),,"anti-IgE E27 IgG1 variant Pro331Ala (antibody, also called P331(350)A; IG2 65) heavy: not shown light: DIQLTQSPSSLSASVGDRVTITCRASKPVDGEGDSYLNWYQQKPGKAPKLLIYAASYLESGVPSRFSGSGSGTDFTLTISSLQPEDFATYYCQQSHEDPYTFGQGTKVEIKRTVAAPSVFIFPPSDEQLKSGTASVVCLLNNFYPREAKVQWKVDNALQSGNSQESVTEQDSKDSTYSLSSTLTLSKADYEKHKVYACEVTHQGLSSPVTKSFNRGEC"
1.01 ratio (variant/native IgG1),1.31 ratio (variant/native IgG1),1.61 ratio (variant/native IgG1),0.89 ratio (variant/native IgG1),1.15 ratio (variant/native IgG1),,"anti-IgE E27 IgG1 variant Lys290Ala (antibody, also called K290(307)A; K307A) heavy: not shown light: DIQLTQSPSSLSASVGDRVTITCRASKPVDGEGDSYLNWYQQKPGKAPKLLIYAASYLESGVPSRFSGSGSGTDFTLTISSLQPEDFATYYCQQSHEDPYTFGQGTKVEIKRTVAAPSVFIFPPSDEQLKSGTASVVCLLNNFYPREAKVQWKVDNALQSGNSQESVTEQDSKDSTYSLSSTLTLSKADYEKHKVYACEVTHQGLSSPVTKSFNRGEC"
0.02 ratio (variant/native IgG1),0.09 ratio (variant/native IgG1),0.12 ratio (variant/native IgG1),0.05 ratio (variant/native IgG1),0.05 ratio (variant/native IgG1),,"anti-IgE E27 IgG1 variant Asp265Ala (antibody, also called D278A) heavy: not shown light: DIQLTQSPSSLSASVGDRVTITCRASKPVDGEGDSYLNWYQQKPGKAPKLLIYAASYLESGVPSRFSGSGSGTDFTLTISSLQPEDFATYYCQQSHEDPYTFGQGTKVEIKRTVAAPSVFIFPPSDEQLKSGTASVVCLLNNFYPREAKVQWKVDNALQSGNSQESVTEQDSKDSTYSLSSTLTLSKADYEKHKVYACEVTHQGLSSPVTKSFNRGEC"
1.06 ratio (variant/native IgG1),1.27 ratio (variant/native IgG1),1.42 ratio (variant/native IgG1),1.08 ratio (variant/native IgG1),1.13 ratio (variant/native IgG1),,"anti-IgE E27 IgG1 variant Glu333Ala (antibody, also called E352A) heavy: not shown light: DIQLTQSPSSLSASVGDRVTITCRASKPVDGEGDSYLNWYQQKPGKAPKLLIYAASYLESGVPSRFSGSGSGTDFTLTISSLQPEDFATYYCQQSHEDPYTFGQGTKVEIKRTVAAPSVFIFPPSDEQLKSGTASVVCLLNNFYPREAKVQWKVDNALQSGNSQESVTEQDSKDSTYSLSSTLTLSKADYEKHKVYACEVTHQGLSSPVTKSFNRGEC"
,,,,,ratio to native IgG1 [12]: 0.8 ratio; percentage of the wild type [13]: 104%; ratio to native IgG1 [14]: 0.21 ratio; ratio to native IgG1 [15]: 0.08 ratio; percentage of the wild type [16]: 85%; percentage of the wild type [17]: 111%; ratio to native IgG1 [18]: 0.48 ratio,"anti-IgE E27 IgG1 Pro329Ala (antibody, also called P329A) heavy: not shown light: DIQLTQSPSSLSASVGDRVTITCRASKPVDGEGDSYLNWYQQKPGKAPKLLIYAASYLESGVPSRFSGSGSGTDFTLTISSLQPEDFATYYCQQSHEDPYTFGQGTKVEIKRTVAAPSVFIFPPSDEQLKSGTASVVCLLNNFYPREAKVQWKVDNALQSGNSQESVTEQDSKDSTYSLSSTLTLSKADYEKHKVYACEVTHQGLSSPVTKSFNRGEC"
